The text below walks through data of US20250346904A1, “CCR5 and CD4 siRNA-TARGETED PHOSPHOLIPID NANOSOMES THERAPEUTICS FOR TREATMENT OF HIV-1 AND OTHER DISEASES” (priority 2024, published 2025).

Test [1] deals with HIV-1RF virus (NIH ARP Cat #2804, dual-tropic). The experiment in a line: Knockdown by BFU assay on P4/R5 cells, HIV-1RF, log dilutions (RNA-I-47). Format: cell-based. As to conditions: Human immunodeficiency virus 1, P4/R5, each drug as part of the Raltegravir + Efavirenz cocktail, read-out: Inhibitory Dose 50 (ID50) of the cocktail. The procedure:
MAGI P4/R5 cells carry the β-galactosidase gene under control of the HIV LTRs (Long Terminal Repeats). […] Briefly, 96 well plates of MAGI P4/R5 cells were infected with HIV-1 and fixed 2-3 days post infection with a fixative containing 1% formaldehyde and 0.2% glutaraldehyde. Fixed cells were washed with PBS (Phosphate Buffered Saline) and stained for β-galactosidase activity using X-gal at 1 mg/mL in PBS with 5 mM potassium ferricyanide and 5 mM potassium ferrocyanide as per published procedures. The cells were usually stained 3 hours to overnight, the number of blue foci counted under the microscope and reported as Blue Focus-forming Units (BFUs).
In this study (RNA-I-47), 8 siRNA nanosomal formulations and 2 controls were evaluated for HIV-1 inhibition on P4/R5 cells using the BFU assay. The test formulations were the same 3 CD4_siRNAs, 3 CCR5_siRNAs, RANTES protein alone and RANTES protein co-encapsulated with a CCR5_siRNA in phospholipid nanosomes, tested previously in RNA-I-50b and RNA-I-51. The HIV-1 virus used was NIH ARP Cat #2804, a member of a panel HIV-1RF viruses and is dual-tropic with the ability to infect both CCR5 and CXCR4 receptor expressing cells.
This study was similar to the previous studies with a few differences. […]

The next test concerns HIV-1 RF, NIH Cat #2804. In words: Knockdown by BFU assay, HIV-1 RF, with and without lipofectamine (RNA-I-61). Conditions: Naked (unencapsulated), Presence of Lipofectamine. The test is classed as cell-based. As for the experimental part:
A knockdown study (RNA-I-61) of the 8 nanoencapsulated and the corresponding unencapsulated (naked) siRNA preparations along with two controls described in the previous experiments was performed using freshly reconstituted materials with HIV-1 RF, NIH Cat #2804, diluted to contain ˜100 Blue Focus forming Units (BFUs) per dose of inoculum. […] The objective of this experiment was to test a range of concentrations of the inhibitors to determine the ID50 for each preparation based on the siRNA content. Since the nanosomal materials were freshly reconstituted, they were recharacterized.
The reconstituted samples as well as the naked siRNA preparations were tested for virus infection inhibitory activity. The inhibition of infectivity was measured by counting the number of blue foci due to the induced B-galactosidase activity in the host MAGI P4/R5 cells by the infecting HIV. […] The number of BFUs for each treatment at various dilutions were used to calculate the % inhibition from the corresponding dilution for the Negative_siRNA samples. The inhibitor activity was also quantified by measuring the p24 antigen concentration in each of the wells.
Infectivity Assay by BFUs: The percent inhibitions obtained with various Nanosomal_siRNA formulations versus Negative_siRNA formulations in the presence of lipofectamine are listed in Table 12.
50% Inhibitory Dose (ID50) Values: The data from RNA quantification using gel analysis and the infectivity results were used to plot dose response curves and calculate the ID50 (a.k.a. Inhibitory Concentration that results in 50% inhibition, [IC50]) values.

On to `O=C1Nc2ccc(Cl)cc2[C@@](C#CC2CC2)(C(F)(F)F)O1` [Efavirenz], for which, in test [1], the IC50 turned out to be 0.16 nM.

B1: RANTES: CCL5, a CC chemokine with a molecular weight of 7,900, natural ligand of CCR5; unencapsulated in Table 13 (protein, UniProt P13501 24-91, looked up)
C-C motif chemokine 5: SPYSSDTTPCCFAYIARPLPRAHIKEYFYTSGKCSNPAVVFVTRKNRQVCANPEKKWVREYINSLEMS
modifications: ends and bridges not checked
As for B1, the “Inhibition of BFUs by Naked_siRNA vs Negative_siRNA” value in the test on HIV-1 RF, NIH Cat #2804 (treatment dilution 1) was determined as 0%; in the test on HIV-1 RF, NIH Cat #2804 (treatment dilution 5), 34%; in the test with HIV-1 RF, NIH Cat #2804 (treatment dilution 15) it was 18%; in the test with HIV-1 RF, NIH Cat #2804 (treatment dilution 45), 0%; in the test with HIV-1 RF, NIH Cat #2804 (treatment dilution 135) it was 0%.
